Assay results as given in US20220296726A1 (Bicycle, published 2022).
*1 amine or outer side, *2 acyl side, *3 side chain or, on linkers, in order; H or OH if unused. Bridges are numbered along the chain shown (N, C = ends). Where no end group is shown, it is not given here. [ ]: non-standard residue; d: D form. The star is where a group is joined. TATA = O=C(CC[*:1])N1CN(C(=O)CC[*:2])CN(C(=O)CC[*:3])C1; 1Nal = N[C@@H](Cc1cccc2ccccc12)C(=O)O; 2Nal = N[C@@H](Cc1ccc2ccccc2c1)C(=O)O; hPhe = N[C@@H](CCc1ccccc1)C(=O)O; NMeA = CN[C@@H](C)C(=O)O; Pent4ynoyl = C#CCCC(=O)*

T1: TREM2 on human iPSC macrophages (human, UniProt Q9NZC2 19-230)
T1 sequence (looked up): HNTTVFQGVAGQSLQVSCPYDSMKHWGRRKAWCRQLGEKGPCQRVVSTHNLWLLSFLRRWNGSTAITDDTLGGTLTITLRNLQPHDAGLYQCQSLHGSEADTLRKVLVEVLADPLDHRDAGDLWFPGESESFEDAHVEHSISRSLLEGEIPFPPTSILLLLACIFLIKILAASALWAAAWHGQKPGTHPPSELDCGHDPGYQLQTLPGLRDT

T2: Human TREM2 extracellular domain (ECD), residues 19-131, C-terminally biotinylated, glycosylated (human, UniProt Q9NZC2 19-131, C-terminally biotinylated; glycosylated)
T2 construct: range 19-131; loaded on Superstreptavidin biosensors; also called Human BLI glycosylated
T2 sequence (looked up): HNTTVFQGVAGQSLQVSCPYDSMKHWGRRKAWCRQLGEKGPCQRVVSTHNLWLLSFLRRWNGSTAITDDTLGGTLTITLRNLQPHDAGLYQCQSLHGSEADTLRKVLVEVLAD

T3: Human TREM2 extracellular domain (ECD), residues 19-131, C-terminally biotinylated, deglycosylated (human, UniProt Q9NZC2 19-131, C-terminally biotinylated; deglycosylated)
T3 construct: range 19-131; loaded on Superstreptavidin biosensors; also called triggering receptor expressed on myeloid cells 2; Human BLI (deglycosylated)
T3 sequence (looked up): T2 sequence (looked up)

B1: BCY19768 (peptide)
peptide: ACTSYCFWPFYQCA-NH2
modifications: linker 2-6-13 via TATA; N-terminus assumed
SMILES: C[C@H](N)C(=O)N[C@H]1CSCCC(=O)N2CN3CN(C2)C(=O)CCSC[C@H](NC(=O)[C@H](Cc2ccc(O)cc2)NC(=O)[C@H](CO)NC(=O)[C@H]([C@@H](C)O)NC1=O)C(=O)N[C@@H](Cc1ccccc1)C(=O)N[C@@H](Cc1c[nH]c2ccccc12)C(=O)N1CCC[C@H]1C(=O)N[C@@H](Cc1ccccc1)C(=O)N[C@@H](Cc1ccc(O)cc1)C(=O)N[C@@H](CCC(N)=O)C(=O)N[C@H](C(=O)N[C@@H](C)C(N)=O)CSCCC3=O
B2: BCY19766 (peptide)
peptide: ACSYYCFWPFQSCA-NH2
modifications: linker 2-6-13 via TATA; N-terminus assumed
SMILES: C[C@H](N)C(=O)N[C@H]1CSCCC(=O)N2CN3CN(C2)C(=O)CCSC[C@H](NC(=O)[C@H](Cc2ccc(O)cc2)NC(=O)[C@H](Cc2ccc(O)cc2)NC(=O)[C@H](CO)NC1=O)C(=O)N[C@@H](Cc1ccccc1)C(=O)N[C@@H](Cc1c[nH]c2ccccc12)C(=O)N1CCC[C@H]1C(=O)N[C@@H](Cc1ccccc1)C(=O)N[C@@H](CCC(N)=O)C(=O)N[C@@H](CO)C(=O)N[C@H](C(=O)N[C@@H](C)C(N)=O)CSCCC3=O
B3: BCY19669 (peptide)
peptide: Ac-CSEYCF[1Nal]PFYHC-NH2
modifications: linker 1-5-12 via TATA
SMILES: CC(=O)N[C@H]1CSCCC(=O)N2CN3CN(C2)C(=O)CCSC[C@H](NC(=O)[C@H](Cc2ccc(O)cc2)NC(=O)[C@H](CCC(=O)O)NC(=O)[C@H](CO)NC1=O)C(=O)N[C@@H](Cc1ccccc1)C(=O)N[C@@H](Cc1cccc2ccccc12)C(=O)N1CCC[C@H]1C(=O)N[C@@H](Cc1ccccc1)C(=O)N[C@@H](Cc1ccc(O)cc1)C(=O)N[C@@H](Cc1c[nH]cn1)C(=O)N[C@H](C(N)=O)CSCCC3=O
B4: BCY19671 (peptide)
peptide: CSEYCFXPFYHC
modifications: N-terminal acetyl (Ac); CiSEYCiiF[6ClTrp]PFYHCiii; Ci, Cii, Ciii on TATA scaffold
B5: BCY20059 (peptide)
peptide: CSEYCFXPFYHC
modifications: N-terminal acetyl (Ac); CiSEYCiiF[Trp(Me)]PFYHCiii; Ci, Cii, Ciii on TATA scaffold
B6: BCY20052 (peptide)
peptide: CSEYCXWPFYHC
modifications: N-terminal acetyl (Ac); CiSEYCii[3FPhe]WPFYHCiii; Ci, Cii, Ciii on TATA scaffold
B7: BCY20053 (peptide)
peptide: CSEYCXWPFYHC
modifications: N-terminal acetyl (Ac); CiSEYCii[4FPhe]WPFYHCiii; Ci, Cii, Ciii on TATA scaffold
B8: BCY20080 (peptide)
peptide: CSEYCFWPFXHC
modifications: N-terminal acetyl (Ac); CiSEYCiiFWPF[3tBuTyr]HCiii; Ci, Cii, Ciii on TATA scaffold
B9: BCY20072 (peptide)
peptide: CSEYCFWPXYHC
modifications: N-terminal acetyl (Ac); CiSEYCiiFWP[3MePhe]YHCiii; Ci, Cii, Ciii on TATA scaffold
B10: BCY20067 (peptide)
peptide: CSEYCFWXFYHC
modifications: N-terminal acetyl (Ac); CiSEYCiiFW[Cis-HyP]FYHCiii; Ci, Cii, Ciii on TATA scaffold

target: T1, TREM2 on human iPSC macrophages; assay: cell-based or functional assay

Binder	pSYK (µM)
CSEYCFWPXYHC (N-terminal acetyl (Ac); CiSEYCiiFWP[1Nal]YHCiii; Ci, Cii, Ciii on TATA scaffold) [BCY19668]	12.7 µM
ACTNYCFWPFAVCA (linker 2-6-13 via TATA) [BCY19783]	4.2 µM
Ac-CSEYCF[1Nal]P[hPhe]YHC (linker 1-5-12 via TATA) [BCY19672]	8.5 µM
B1	7.8 µM
ACSNYCFWPFWQCA (linker 2-6-13 via TATA) [BCY19770]	4.5 µM
ACSEYCFWPFFLCA (linker 2-6-13 via TATA) [BCY19776]	4.4 µM
ACSNYCFWPFFQCA (linker 2-6-13 via TATA) [BCY19772]	13.9 µM
ACSEYCFWPFWQCA (linker 2-6-13 via TATA) [BCY19778]	4.6 µM
Ac-CSEYCFWPFYAC (linker 1-5-12 via TATA) [BCY19293]	7.2 µM
CSEYCFWPXYHC (N-terminal acetyl (Ac); CiSEYCiiFWP[HPhe]YHCiii; Ci, Cii, Ciii on TATA scaffold) [BCY19667]	7.4 µM
ACSYYCFWPFQYCA (linker 2-6-13 via TATA) [BCY19767]	8.6 µM
ACSEYCFWPFQYCA (linker 2-6-13 via TATA) [BCY19784]	1.8 µM
B2	35.2 µM
ACSEYCFWPFQWCA (linker 2-6-13 via TATA) [BCY19771]	9.9 µM
B3	16.6 µM
Ac-CSEYCF[1Nal]PFYAC (linker 1-5-12 via TATA) [BCY19294]	< 3.4 µM
Ac-CSEYCF[2Nal]PFYAC (linker 1-5-12 via TATA) [BCY19296]	< 3.4 µM
Ac-CSEYCFW[NMeA]FYAC (linker 1-5-12 via TATA) [BCY19303]	< 3.4 µM
B4	154 µM
ACTNYCFWPFQSCA (linker 2-6-13 via TATA) [BCY19780]	12.6 µM
ACTNYCFWPFWSCA (linker 2-6-13 via TATA) [BCY19769]	0.2 µM
ACTNYCFWPFYLCA (linker 2-6-13 via TATA) [BCY19782]	3.8 µM
ACTNYCFWPFYSCA (linker 2-6-13 via TATA) [BCY19781]	34.1 µM
ACTNYCFWPFQYCA (linker 2-6-13 via TATA) [BCY19779]	2.5 µM

target: T2, Human TREM2 extracellular domain (ECD), …; assay: BLI steady state, glycosylated human TREM2 ECD on sensor
Experimental: (§1) Bio-layer interferometry was performed on an Octet RED384® system (Sartorius) at 25° C. in a buffer containing 50 mM HEPES (pH 7.5), 150 mM NaCl and 0.1% Tween. […] Reference wells containing no bicycle peptides and reference sensors loaded with an unrelated protein (His-tagged MLLT3a) were subjected to the same assay protocol and double reference subtraction was used for processing to account for non-specific binding. Traces were analysed using Octet Software (Version 11.0). Association and dissociation curves were globally fit and the response at equilibrium (Req) plotted against concentration to obtain steady-state KD values.

Binder	Kd
K(Pent4ynoyl)CSEYCFWPFYHC (linker 2-6-13 via TATA) [BCY20042]	1350 nM
CSEYCXWPFYHC (N-terminal acetyl (Ac); CiSEYCii[1Nal]WPFYHCiii; Ci, Cii, Ciii on TATA scaffold) [BCY20054]	1830 nM
CSEYCFWPXYHC (N-terminal acetyl (Ac); CiSEYCiiFWP[2Nal]YHCiii; Ci, Cii, Ciii on TATA scaffold) [BCY20076]	1290 nM
B5	1500 nM
Ac-CSEYCFWPFWHC (linker 1-5-12 via TATA) [BCY20077]	750 nM
B6	1250 nM
B7	1710 nM

target: T3, Human TREM2 extracellular domain (ECD), …; assay: BLI steady state, deglycosylated human TREM2 ECD on sensor
Experimental: as §1

Binder	Kd
CSEYCFWPXYHC (N-terminal acetyl (Ac); CiSEYCiiFWP[1Nal]YHCiii; Ci, Cii, Ciii on TATA scaffold) [BCY19668]	240 nM
ACTNYCFWPFAVCA (linker 2-6-13 via TATA) [BCY19783]	2700 nM
B8	375 nM
B9	1670 nM
K(Pent4ynoyl)CSEYCFWPFYHC (linker 2-6-13 via TATA) [BCY20042]	1190 nM
CSEYCXWPFYHC (N-terminal acetyl (Ac); CiSEYCii[1Nal]WPFYHCiii; Ci, Cii, Ciii on TATA scaffold) [BCY20054]	2540 nM
Ac-CSEYCF[1Nal]P[hPhe]YHC (linker 1-5-12 via TATA) [BCY19672]	2800 nM
CSEYCFWXFYHC (N-terminal acetyl (Ac); CiSEYCiiFW[Aze]FYHCiii; Ci, Cii, Ciii on TATA scaffold) [BCY20068]	2540 nM
CSEYCFWPFXHC (N-terminal acetyl (Ac); CiSEYCiiFWPF[1Nal]HCiii; Ci, Cii, Ciii on TATA scaffold) [BCY20081]	1060 nM
B5	1810 nM
B1	900 nM
ACSNYCFWPFWQCA (linker 2-6-13 via TATA) [BCY19770]	1800 nM
ACSEYCFWPFFLCA (linker 2-6-13 via TATA) [BCY19776]	750 nM
ACSNYCFWPFFQCA (linker 2-6-13 via TATA) [BCY19772]	960 nM
ACSEYCFWPFWQCA (linker 2-6-13 via TATA) [BCY19778]	3600 nM
Ac-CSEYCFWPFYAC (linker 1-5-12 via TATA) [BCY19293]	970 nM
CSEYCFWPXYHC (N-terminal acetyl (Ac); CiSEYCiiFWP[HPhe]YHCiii; Ci, Cii, Ciii on TATA scaffold) [BCY19667]	430 nM
B10	23600 nM

Binder	Kd
B6	4880 nM
B7	2010 nM
ACSYYCFWPFQYCA (linker 2-6-13 via TATA) [BCY19767]	550 nM
ACSEYCFWPFQYCA (linker 2-6-13 via TATA) [BCY19784]	450 nM
B2	1000 nM
ACSEYCFWPFQWCA (linker 2-6-13 via TATA) [BCY19771]	5700 nM
B3	2000 nM
Ac-CSEYCF[1Nal]PFYAC (linker 1-5-12 via TATA) [BCY19294]	1500 nM
Ac-CSEYCF[2Nal]PFYAC (linker 1-5-12 via TATA) [BCY19296]	2700 nM
Ac-CSEYCFW[NMeA]FYAC (linker 1-5-12 via TATA) [BCY19303]	2300 nM
B4	1000 nM
CSEYCFWXFYHC (N-terminal acetyl (Ac); CiSEYCiiFW[Pip]FYHCiii; Ci, Cii, Ciii on TATA scaffold) [BCY20069]	1460 nM
ACTNYCFWPFQSCA (linker 2-6-13 via TATA) [BCY19780]	2400 nM
ACTNYCFWPFWSCA (linker 2-6-13 via TATA) [BCY19769]	920 nM
ACTNYCFWPFYLCA (linker 2-6-13 via TATA) [BCY19782]	1400 nM
ACTNYCFWPFYSCA (linker 2-6-13 via TATA) [BCY19781]	1400 nM
ACTNYCFWPFQYCA (linker 2-6-13 via TATA) [BCY19779]	920 nM
